Consider 15 molecules from patent US20250340637A1 (ABPRO, published 2025).

To fix the notation:
B1: 32G4-V8 x huSP34-v5 (bispecific antibody, V domains shown)
VH: EVQLVESGGGLVQPGGSLKLSCAASGFTFNTYAMNWVRQAPGKGLEWVARIRSKYNNYATYYADSVKDRFTISRDDSKNTAYLQMNSLKTEDTAVYYCVRHGNFGNSYVSWFAYWGQGTLVTVSS
VL: QTVVTQEPSLTVSPGGTVTLTCRSSTGAVTTSNYANWVQQKPGQAFRGLIGGTNKRAPGVPARFSGSLLGGKAALTLSGVQPEDEAIYFCALWYSNLWVFGGGTKLEIK
notes: The name reads as 32G4-V8 arm x huSP34-v5 arm
B2: ABP100s.11.0 (antibody, V domains shown)
VH: EVQLLESGGGLVQPGGSLRLSCAASGFTFNTYAMNWVRQAPGKGLEWVSRIRSKYNNYATYYADSVKDRFTISRDNSKNTLYLQMNSLRAEDTAVYYCAKHGNFGNSYVSWFAYWGQGTTVTVSS
VL: QAVVTQEPSLTVSPGGTVTLTCRSSTGAVTTSNYANWFQQKPGQAPRTLIYGTNKRAPWTPARFSGSLLGGKAALTLSGAQPEDEAEYYCALWYSNLWVFGGGTKLTVL
B3: 47D10-V7-v5.1 (antibody, V domains shown)
VH: EVQLVESGGGLVQPGGSLKLSCAASGFTFNTYAMNWVRQAPGKGLEWVARIRSKYNNYATYYADSVKDRFTISRDDSKNTAYLQMNSLKTEDTAVYYCVRHGNFGNSYVSWFGYWGQGTLVTVSS
VL: QTVVTQEPSLTVSPGGTVTLTCRSSTGAVTTSNYANWVQQKPGQAFRGLIGGTNKRAPGVPARFSGSLLGGKAALTLSGVQPEDEAIYFCALWYSNLWVFGGGTKLTVL
B4: ABP100s.12.0 (antibody, V domains shown)
VH: EVQLLESGGGLVQPGGSLRLSCAASGFTFNTYAMNWVRQAPGKCLEWVSRIRSKYNNYATYYADSVKDRFTISRDNSKNTLYLQMNSLRAEDTAVYYCAKHGNFGNSYVSWFAYWGQGTTVTVSS
VL: QAVVTQEPSLTVSPGGTVTLTCRSSTGAVTTSNYANWFQQKPGQAPRTLIYGTNKRAPWTPARFSGSLLGGKAALTLSGAQPEDEAEYYCALWYSNLWVFGCGTKLTVL
B5: 32G4-V8 x huSP34-v5 (N297A, K322A) (bispecific antibody, V domains shown)
VH: EVQLVESGGGLVQPGGSLKLSCAASGFTFNTYAMNWVRQAPGKGLEWVARIRSKYNNYATYYADSVKDRFTISRDDSKNTAYLQMNSLKTEDTAVYYCVRHGNFGNSYVSWFAYWGQGTLVTVSS
VL: QTVVTQEPSLTVSPGGTVTLTCRSSTGAVTTSNYANWVQQKPGQAFRGLIGGTNKRAPGVPARFSGSLLGGKAALTLSGVQPEDEAIYFCALWYSNLWVFGGGTKLEIK
notes: The name carries the substitutions N297A, K322A
B6: 47D10-V7 x huSP34-v5 (bispecific antibody, V domains shown)
VH: EVQLVESGGGLVQPGGSLKLSCAASGFTFNTYAMNWVRQAPGKGLEWVARIRSKYNNYATYYADSVKDRFTISRDDSKNTAYLQMNSLKTEDTAVYYCVRHGNFGNSYVSWFAYWGQGTLVTVSS
VL: QTVVTQEPSLTVSPGGTVTLTCRSSTGAVTTSNYANWVQQKPGQAFRGLIGGTNKRAPGVPARFSGSLLGGKAALTLSGVQPEDEAIYFCALWYSNLWVFGGGTKLEIK
notes: The name reads as 47D10-V7 arm x huSP34-v5 arm
B7: 32G4-V8-v5.1 (antibody, V domains shown)
VH: EVQLVESGGGLVQPGGSLKLSCAASGFTFNTYAMNWVRQAPGKGLEWVARIRSKYNNYATYYADSVKDRFTISRDDSKNTAYLQMNSLKTEDTAVYYCVRHGNFGNSYVSWFGYWGQGTLVTVSS
VL: QTVVTQEPSLTVSPGGTVTLTCRSSTGAVTTSNYANWVQQKPGQAFRGLIGGTNKRAPGVPARFSGSLLGGKAALTLSGVQPEDEAIYFCALWYSNLWVFGGGTKLTVL
B8: 47D10-V7 x huSP34-v5 (N297A, K322A) (bispecific antibody, V domains shown)
VH: EVQLVESGGGLVQPGGSLKLSCAASGFTFNTYAMNWVRQAPGKGLEWVARIRSKYNNYATYYADSVKDRFTISRDDSKNTAYLQMNSLKTEDTAVYYCVRHGNFGNSYVSWFAYWGQGTLVTVSS
VL: QTVVTQEPSLTVSPGGTVTLTCRSSTGAVTTSNYANWVQQKPGQAFRGLIGGTNKRAPGVPARFSGSLLGGKAALTLSGVQPEDEAIYFCALWYSNLWVFGGGTKLEIK
notes: as for B5
B9: ABP100s.20 (antibody, V domains shown)
VH: EVQLVESGGGLVKPGGSLRLSCAASGFTFNTYAMNWVRQAPGKGLEWVARIRSKYNNYATYYADSVKGRFTISRDDAKSSLYLQMNSLRAEDTAVYYCVRHGNFGNSYVSWFAYWGQGTLVTVSS
VL: QAVVTQEPSLTVSPGGTVTLTCGSSTGAVTTSNYANWVQQKPGQAFRGLIGGTNKKASWTPARFSGSLLGDKAALTLSGAQPEDEAEYYCALWYSNLWVFGGGTKLTVL
B10: ABP100s.18 (antibody, V domains shown)
VH: EVQLVESGGGLVQPGGSLRLSCAASGFTFNTYAMNWVRQAPGKGLEWVARIRSKYNNYATYYADSVKGRFTISRDDSKSSLYLQMNSLKTEDTAVYYCVRHGNFGNSYVSWFAYWGQGTLVTVSS
VL: QAVVTQEPSLTVSPGGTVTLTCGSSTGAVTTSNYANWVQQKPGQAFRGLIGGTNKKASWTPARFSGSLLGDKAALTLSGAQPEDEAEYYCALWYSNLWVFGGGTKLTVL
B11: ABP100s.19 (antibody, V domains shown)
VH: EVQLVESGGGLVKPGGSLRLSCAASGFTFNTYAMNWVRQAPGKGLEWVARIRSKYNNYATYYADSVKGRFTISRDDSQSSLYLQMNSLRAEDTAVYYCVRHGNFGNSYVSWFAYWGQGTLVTVSS
VL: QAVVTQEPSLTVSPGGTVTLTCGSSTGAVTTSNYANWVQQKPGQAFRGLIGGTNKKASWTPARFSGSLLGDKAALTLSGAQPEDEAEYYCALWYSNLWVFGGGTKLTVL
B12: ABP100s.17 (antibody, V domains shown)
VH: EVQLVESGGGLVQPGGSLRLSCAASGFTFNTYAMNWVRQAPGKGLEWVARIRSKYNNYATYYADSVKGRFTISRDDSQSSLYLQMNSLKTEDTAVYYCVRHGNFGNSYVSWFAYWGQGTLVTVSS
VL: QAVVTQEPSLTVSPGGTVTLTCGSSTGAVTTSNYANWVQQKPGQAFRGLIGGTNKKASWTPARFSGSLLGDKAALTLSGAQPEDEAEYYCALWYSNLWVFGGGTKLTVL
B13: ABP100s.15 (antibody, V domains shown)
VH: EVQLVESGGGLVKPGGSLRLSCAASGFTFNTYAMNWVRQAPGKGLEWVARIRSKYNNYATYYADSVKGRFTISRDDSQSSLYLQMNSLRAEDTAVYYCVRHGNFGNSYVSWFAYWGQGTLVTVSS
VL: QAVVTQEPSLTVSPGGTVTLTCGSSTGAVTTSNYANWVQQKPGQAFRGLIGGTNKRAPWTPARFSGSLIGDKAALTLSGAQPEDEAEYFCALWYSNLWVFGGGTKLTVL
B14: ABP100s.16 (antibody, V domains shown)
VH: EVQLVESGGGLVKPGGSLRLSCAASGFTFNTYAMNWVRQAPGKGLEWVARIRSKYNNYATYYADSVKGRFTISRDDAKSSLYLQMNSLRAEDTAVYYCVRHGNFGNSYVSWFAYWGQGTLVTVSS
VL: QAVVTQEPSLTVSPGGTVTLTCGSSTGAVTTSNYANWVQQKPGQAFRGLIGGTNKRAPWTPARFSGSLIGDKAALTLSGAQPEDEAEYFCALWYSNLWVFGGGTKLTVL
B15: ABP100s.14 (antibody, V domains shown)
VH: EVQLVESGGGLVQPGGSLRLSCAASGFTFNTYAMNWVRQAPGKGLEWVARIRSKYNNYATYYADSVKGRFTISRDDSKSSLYLQMNSLKTEDTAVYYCVRHGNFGNSYVSWFAYWGQGTLVTVSS
VL: QAVVTQEPSLTVSPGGTVTLTCGSSTGAVTTSNYANWVQQKPGQAFRGLIGGTNKRAPWTPARFSGSLIGDKAALTLSGAQPEDEAEYFCALWYSNLWVFGGGTKLTVL

Where only a bound is given, the exact number is not on record here.

T1 sequence (P07766 23-126 limits assumed): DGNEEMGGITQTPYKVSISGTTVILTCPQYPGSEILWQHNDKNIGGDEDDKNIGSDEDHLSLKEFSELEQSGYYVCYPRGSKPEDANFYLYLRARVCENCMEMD

One experiment concerns the target T1, HuCD3E (Homo sapiens, UniProt P07766 23-126, limits assumed).
T1 construct: Recombinant analyte in SPR and antigen in ELISA; also called human CD3; human CD3 epsilon
In words: SPR, Biacore 8K; CD3 Affinity column: Hi. For orientation: Surface plasmon resonance follows binding to a sensor surface in real time, without labels.
The Kd is the constant that tells how readily two partners part at equilibrium. A high value points to weaker binding. In turn, B1 gave a Kd of under 10 nM.

Molecule B2 yielded an equilibrium dissociation constant (Kd) of under 10 nM.

As for B3, the Kd is under 10 nM.

Regarding B4, the Kd is under 10 nM.

With B5, the Kd was under 10 nM.

B6 showed an equilibrium dissociation constant (Kd) of under 10 nM.

Turning to B7, the dissociation constant (Kd) was under 10 nM.

B8 yielded a dissociation constant Kd of under 10 nM.

The next experiment deals with T1, HuCD3E. Nature of the experiment: SPR, Biacore 8K; CD3 Affinity column: Hi. This is another data set of the same source. How it is done: Initially, the affinity measurement of the anti-CD3 clones were determined using a Surface Plasmon Resonance (SPR) biosensor, Biacore 8K (GE Healthcare). The equilibrium dissociation constant (KD) was calculated from the ratio of kd over ka. To determine the contribution of a specific residue to antibody affinity and expression, paratope mapping was performed by screening of NNK libraries. In brief, the VH and VL of the parental antibody were searched by using NCBI Ig-Blast (www.ncbi.nlm.nih.gov/projects/igblast/) and CDRs were defined by the KABAT delineation system. All residues within CDRs were defined and mutated by NNK method. Each individual NNK library was generated per residue based on the FASEBA platform with a theoretical diversity at 20. The DNA encoding both heavy chain and light chain were inserted into a mammalian expression vector, transfected into CHO-S cells, and stable clones of highest expression were selected. Supernatants were collected from shaker flasks and purified on protein A affinity chromatography.
Affinity ranking. Binding between the parental and affinity-tuned bispecific antibodies and human and cyno target proteins (HER2 and CD3) was validated by ELISA, and a Biacore 8K was used to study the kinetics of the interaction between the antigen and the bispecific antibodies.
B9 returned a Kd of under 10 nM.

In turn, B10 came in with a Kd of under 10 nM.

Molecule B11 gave a dissociation constant (Kd) of under 10 nM.

Take B12: the dissociation constant Kd is under 10 nM.

Take B13: the dissociation constant Kd is under 10 nM.

Take B14: the Kd is under 10 nM.

Regarding B15, the Kd is under 10 nM.
